Measured values reported in publication PMC8041770.
One block for each substance: values may come before it.

Key:
[1] = biological target: yeast-displayed eLIFR CBM I–Ig-like domains ('VPRVVAID') (human); assay: flow cytometry on cells; LIFR constructs displayed on yeast (EBY100), soluble tagged cytokine (LIF-His and others) in PBS with 1 mg/ml BSA, detected by antibody to the tag; gated on c-myc-positive yeast; apparent affinity by non-linear regression
[2] = biological target: yeast-displayed mouse LIFR (mouse) (UniProt P42703); assay: flow cytometry on cells; receptor displayed on yeast, soluble cytokine titrated in PBS with 1 mg/ml BSA; bound cytokine detected by fluorescent antibodies; apparent Kd by non-linear regression
[3] = biological target: recombinant human LIF, histidine-tagged (hLIF-His) (UniProt P15018); assay: flow cytometry of yeast-displayed LIFR variants; conditions: read off a plot
[4] = biological target: yeast-displayed human LIF (hLIF, Ser23 to Phe203) (human) (UniProt P15018); assay: not stated; Supplementary Fig. 7b, not shown; told only in the discussion

yeast-displayed wild-type human LIFR CBM I–Ig-like domains (Gln45 to Gln337), sequence (P42702 45-337, stated change not applied): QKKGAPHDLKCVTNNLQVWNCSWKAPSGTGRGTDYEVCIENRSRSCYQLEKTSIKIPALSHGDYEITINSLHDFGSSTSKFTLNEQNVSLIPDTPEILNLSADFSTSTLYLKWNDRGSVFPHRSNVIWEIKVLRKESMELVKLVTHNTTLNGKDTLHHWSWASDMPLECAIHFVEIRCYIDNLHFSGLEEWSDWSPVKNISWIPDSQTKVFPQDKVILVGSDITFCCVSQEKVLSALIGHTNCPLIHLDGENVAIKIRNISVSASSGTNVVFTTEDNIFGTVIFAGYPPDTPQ
yeast-displayed mouse LIFR (mouse), sequence (P42703 44-1092): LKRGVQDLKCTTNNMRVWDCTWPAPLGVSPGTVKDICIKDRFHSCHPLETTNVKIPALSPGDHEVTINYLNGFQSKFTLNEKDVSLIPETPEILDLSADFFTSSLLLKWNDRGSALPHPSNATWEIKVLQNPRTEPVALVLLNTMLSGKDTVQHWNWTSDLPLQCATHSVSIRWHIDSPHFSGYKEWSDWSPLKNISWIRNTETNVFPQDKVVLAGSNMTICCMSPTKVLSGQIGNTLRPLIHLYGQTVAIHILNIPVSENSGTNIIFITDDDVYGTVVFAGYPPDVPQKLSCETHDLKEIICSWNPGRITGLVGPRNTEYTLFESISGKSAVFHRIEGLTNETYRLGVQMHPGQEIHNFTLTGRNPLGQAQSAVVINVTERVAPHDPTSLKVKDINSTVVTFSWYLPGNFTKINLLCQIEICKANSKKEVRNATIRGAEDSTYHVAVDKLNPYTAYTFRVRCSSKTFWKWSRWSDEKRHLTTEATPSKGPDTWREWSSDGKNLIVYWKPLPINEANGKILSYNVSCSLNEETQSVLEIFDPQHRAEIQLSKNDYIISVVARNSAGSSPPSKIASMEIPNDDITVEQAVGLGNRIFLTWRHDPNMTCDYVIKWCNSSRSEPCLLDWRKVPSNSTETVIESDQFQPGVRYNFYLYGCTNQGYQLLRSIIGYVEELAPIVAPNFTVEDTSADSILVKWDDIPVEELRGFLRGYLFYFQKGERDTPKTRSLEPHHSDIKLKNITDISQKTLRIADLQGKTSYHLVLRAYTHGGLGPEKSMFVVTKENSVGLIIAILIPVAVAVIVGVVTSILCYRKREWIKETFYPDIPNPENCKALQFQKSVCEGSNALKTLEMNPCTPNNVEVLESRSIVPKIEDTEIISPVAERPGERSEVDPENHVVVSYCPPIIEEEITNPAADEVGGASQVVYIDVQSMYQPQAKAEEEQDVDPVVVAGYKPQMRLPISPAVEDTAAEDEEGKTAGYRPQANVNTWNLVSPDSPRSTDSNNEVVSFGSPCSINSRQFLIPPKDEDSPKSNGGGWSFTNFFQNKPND
mLIFR-Fc (mouse LIFR CBM I–Ig-like–CBM II fused to an antibody Fc domain), sequence (P42703 44-529): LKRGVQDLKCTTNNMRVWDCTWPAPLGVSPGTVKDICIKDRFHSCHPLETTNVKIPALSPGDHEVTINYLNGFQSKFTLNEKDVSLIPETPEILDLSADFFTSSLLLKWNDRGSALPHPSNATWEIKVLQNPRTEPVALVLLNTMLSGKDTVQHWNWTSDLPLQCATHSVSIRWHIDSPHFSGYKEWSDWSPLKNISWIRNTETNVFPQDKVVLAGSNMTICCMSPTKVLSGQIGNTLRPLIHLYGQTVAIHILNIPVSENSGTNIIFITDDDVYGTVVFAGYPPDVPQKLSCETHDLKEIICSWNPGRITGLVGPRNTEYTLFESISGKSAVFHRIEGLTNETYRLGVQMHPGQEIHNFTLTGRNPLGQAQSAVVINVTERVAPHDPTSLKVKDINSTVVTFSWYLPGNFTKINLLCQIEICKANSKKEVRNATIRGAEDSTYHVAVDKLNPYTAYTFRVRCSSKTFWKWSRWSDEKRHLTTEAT

Kd [1]: 40 pM
Substance: recombinant human LIF, histidine-tagged (hLIF-His) (from UniProt P15018 23-202) (ligand)

Kd [2]: 1.1 pM
Substance: recombinant human LIF-His (from UniProt P15018 23-202) (ligand)

ratio to parent [3]: 5.2
Substance: yeast-displayed wild-type human LIFR CBM I–Ig-like domains (Gln45 to Gln337) (from UniProt P42702) PRDSAID

Kd [4]: 1 pM
Substance: mLIFR-Fc (mouse LIFR CBM I–Ig-like–CBM II fused to an antibody Fc domain) (from UniProt P42703 44-529) (Fc fusion)
